In assay [1] the target is T1, thermolysin-cleaved EBOV GP on Jurkat-GP cells (cleaved GP) (Zaire ebolavirus, Makona (GP1 core …, strain)).
T1 chain 1: not shown
T1 chain 2: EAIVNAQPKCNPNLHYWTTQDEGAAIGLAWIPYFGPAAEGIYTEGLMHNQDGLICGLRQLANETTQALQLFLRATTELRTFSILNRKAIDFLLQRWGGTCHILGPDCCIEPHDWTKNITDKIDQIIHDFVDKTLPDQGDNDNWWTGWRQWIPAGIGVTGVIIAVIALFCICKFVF

In assay [2] the target is EBOV GP ectodomain residues 1-636 (GPec) (Zaire ebolavirus, strain  …, UniProt Q05320).

B1: 5.6.c2998 (antibody, V domains shown)
VH: EVQLVESGGGVVQPGGSLRLSCAASGFTFDDYAMHWVRQAPGKGLEWVSIITGDGGSRNYADSVKGRFTISRDNNKNSLYLQMNSLRSEDTALYYCAKEGGPDSSTFYYYGMDVWGQGTTVTVSS
VL: DIQMTQSPSSVSASVGDRVTITCRASQDVSSWLAWYRQKPGRAPELLIYAASSLQSGVPSRFSGSGSGTDFTLTISSLQPEDFASYYCLQANSIPWTFGQGTKVEIK
With B1, the binding result in assay [1] and in assay [2] was “binds” throughout.

B2: 5.6.c2954 (antibody, V domains shown)
VH: QAQLQESGPGLVKPSQTLSLTCTVSGGFSSSGGFFWSWIRQHPGKDLEWIGYIYSSGSPYYKPSLKSRVTISIDTSKNQFSLRLSSVTAADTAIYYCARGRGEMLTGYFDYWGQGKLVTVSS
VL: SYVLTQPPSVSVAPGKTASITCGGNNIGSKSVHWYQQRPGQAPVLVIYYDTDRPSGIPERFSGSNSGNTATLTISRVEAGDEADYYCQVWDSSSDPLLFGGGTKLTVL
As to B2, the binding result in assay [1] and in assay [2] was “binds” each time.

B3: 5.6.c2931 (antibody, V domains shown)
VH: QLQLQESGPGLVKPSQTLSLTCTVAGGSISRSSYYWGWIRQSPGKGLEWIGSIHYSGSTHYNSSLRSRVTISVDTSKNQFSLNLTSVTAADTAVYYCVRQSSVPYFDWSSPGQIDPWGQGTLVTVSS
VL: QLVLTQSPSASASLGASVKFTCTLSSGHRSYAIAWHQQQPEKGPRYLMKINSDGSHNKGDGIPDRFSGSSSGDERYLTISSLQSEDEADYYCQTWGTGIQVFGGGTKLTVL
With B3, the binding result in assay [1] and in assay [2] was “binds” throughout.

B4: 5.6.c3021 (antibody, V domains shown)
VH: QLHLQESGPGLVKPSETLSLTCTVSGGSINHDYYWGWIRQPPGKGLEWIGTIYYSGNSYYNPSLKSRVTISVDTSKNQFSLKLSSVTAADTAVYYCARSEEDSVFGVLKGLAFDIWGQGTMVTVSS
VL: QSVLTQPPSVSGAPGQRVTISCTGSSSNIGAGYDVHWYQQPPGRAPKLLIYGNSNRASGVPDRFSGSKSGTSASLAITGLQAEDEADYYCQSYDSSLSGSVFGGGTKLTVL
In the case of B4, the binding result in assay [1] and in assay [2] was “binds” throughout.

B5: 5.6.c2972 (antibody, V domains shown)
VH: QVQLQESGPGLVKPSQTLSLTCAVSGGSIRSDDNYWSWIRQPPGKGLEWIGYIYHRGSTYYNPSLKNRVKISVDTSKNQFSLKLSSVTAADTAVYYCARDRIQVVPDGIVHYYYGMDVWGQGTTVTVSS
VL: QSVLTQPPSVSAAPGQKVTISCSGSSSNIGNNYVSWYQQLPGTAPKLLIYDNNKRPSGIPDRFSGSKSGTSATLGITGLQTGDEADYYCGTWDNNLSAWVFGGGTKLTVL
Turning to B5, the binding result in assay [1] and in assay [2] was “binds” in each case.

B6: 5.6.c2995 (antibody, V domains shown)
VH: QVQLVESGGGVVQPGRSLRLSCAASGFSFSTYGMYWVRQAPGKGLEWVGVIWYDGSEKYHADFVKGRFTMSRDNSKNTLYLQMNSLRVEDTAVYYCARDLRPSTNSWYGYYYNAMDVWGQGTTVTVSS
VL: QSVLTQPPSVSAAPGQRVTISCSGNSSNIGNNFVSWYQQLPGTAPKLLIYDNNSRPSGIPDRFSGSKSGTSATLGISGLQTGDEADYYCGSWDGSLSLWVFGGGTKLTVL
For B6, the binding result in assay [1] and in assay [2] was “binds” each time.

B7: 5.6.c2886 (antibody, V domains shown)
VH: QVQLQESGPGLVKPSQTLSLTCTVSGGSISSGDYYWSWIRQHPGKGLEYIGYIYYSGSTFHNPSLKSRVTISIDTSKNQFSLKLSSVTAADTAVYYCARDSGSEIIMGAYGMDVWGQGTTVTVSS
VL: DIQMTQSPSSVSASVGDRVTITCRASQGISWLAWYQQKPGKAPKLLIYAASSLQSGVPSRFSGSGSGTDFTLTISSLQPEDFATYYCQQANSFPWTFGQGTKVEIK
For B7, the binding result in assay [1] and in assay [2] was “binds” in each case.

B8: 5.6.c3013 (antibody, V domains shown)
VH: QVQLVQSGAEVKKPGASVKVSCKASGYTFTKYGISWMRQAPGQGLEWMGWISAYNGDTNYAQKLHGRLTMTTDTSTSTVYMELRSLRSDDTAIYYCARDLGELSSLKFYGMDVWGQGTTVTVSS
VL: DIQLTQSPSFLSASVGDRVTITCRASQGISSFLAWYQQKPGKAPKILVYGASTLQSGVPSRFSGSGSGTEFTLTISSLQPEDFATYYCQQVNTFPFTFGPGTQVDFK
In the case of B8, the binding result in assay [1] and in assay [2] was “binds” throughout.

B9: 5.6.c2957 (antibody, V domains shown)
VH: QVRMVQSGAEVKKPGSSVKVSCKTSGGTFSTYSISWVRQAPGHGLEWMGRLIPMLGTPNYAQKFQGRLTITADRSTSTAYMELSSLSSEDTAVYYCARDLGTVLTPGDSWGQGTLVTVSS
VL: DIQMTQSPSSLSASVGDRVTITCRASQGISNYLAWFQQKPGEAPKSLIYAASSLQSGVPSKFSGSGSGTDFTLTISNLQPEDFATYYCQQYNSYPLTFGGGTKVEIK
For the molecule B9, the binding result in assay [1] and in assay [2] was “binds” each time.

B10: 5.6.c2866 (antibody, V domains shown)
VH: QVQLVQSGAEVKKPGSSVKVSCKASGGTLSSYAISWVRQAPGQGLEWMGRIIPTLGMANYSQNFQGRVTITADKSTSTAYMELSSLRSEDTAVYYCARDPPPGYGDLFYYYSMDVWGQGTTVTVST
VL: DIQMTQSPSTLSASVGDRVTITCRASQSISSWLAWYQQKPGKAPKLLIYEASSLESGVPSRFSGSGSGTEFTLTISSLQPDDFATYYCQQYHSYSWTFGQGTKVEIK
Take B10: the binding result in assay [1] and in assay [2] was “binds” in each case.

B11: 5.6.c3014 (antibody, V domains shown)
VH: QVQLVESGGGVVQPGRSLRLSCAASGFSFNSYGMHWVRQAPGKGLEWVAIIWYDGSDKYYADSVKGRFTISRDNSKNTLSLQMNSLRVEDSAVYYCARDPGHPSDLYYYYGMDVWGQGTTVTVSS
VL: DIQMTQSPSSVSASVGDRVTITCRASQDISYWLAWYQQKPGKAPKLLIYSASSLQSGVPSRFSGSGSGTDFTLTISSLQPEDFATYYCQQTHTFPITFGQGTRLEIK
On to B11, for which the binding result in assay [1] and in assay [2] was “binds” in each case.

B12: 5.6.c2913 (antibody, V domains shown)
VH: DVQLVESGGGLVQPGGSLRLSCVASGLTFSRDWMTWVRQAPGKGLEWVANIKQDGSEKYYLDSVKGRFTISRDNSNNALYLQMSSLRGEDTAVYYCARLHGGGFSDSDLFYYDFAMDVWGQGTTVTVSA
VL: EIVMTQSPATLSVSPGERATLSCRASQSVINNLAWYQQKPGQAPRLLIYGASTRATGIPARFSGSGSGTEFTLTISNLQSEDFAVYYCQQYNNWPPLTFGGGTQVEIK
On to B12, for which the binding result in assay [1] and in assay [2] was “binds” each time.

B13: 5.6.c2828 (antibody, V domains shown)
VH: EVQLVQSGAEVKKPGESLRISCKGSGYSFTKYWISWVRQMPGKGLEWMGRIDPSDSSTNYSPSFQGHVTISDDKSTSIVYLQWSSLKASDTAMYYCARHSWVQNSAYDPQMISYDHYYGMDVWGQGTTVTVSS
VL: ENVLTQSPGTLSLSPGERATLSCRASQSVSSSYLAWYQQKPGQAPRLLIYGASSRATGIPDRFSGSGSGTDFTLTISRLEPGDFAVYYCHQYGSSPLTFGQGTRLEMK
On to B13, for which the binding result in assay [1] and in assay [2] was “binds” in each case.

B14: 5.6.c2961 (antibody, V domains shown)
VH: QVQLQESGPGLVKPSQTLSLTCTVSGDSISSGDYYWNWIRHHPGKGLEWLGYIYYSGSSDYNPSLKSRVTISVDTSKNHFSLKLSSVTAADTAIYYCARGSVSVLFGELDVWGQGTTVTVSS
VL: EIVLTQSPGTLSLSPGERATLSCRASQSVSNNFLAWYQQIRGQAPRLLIYGVSHRATGIPDRFSGSGSGTDFTLTISGLEPEDFALYYCQQYGRSPYTFGQGTRLEIK
For B14, the binding result in assay [1] and in assay [2] was “binds” throughout.

The record behind these values is PMC6908968 (Cell, 2019).
